The supplement of paper PMC11865577

Columns and labels:
Experiment in all cases: pull-down binding Z-score (relative to library population); higher = stronger binding
[1] = test system: G-clamp-N3 (biotin conjugate); details: RNA library: Library-1 (pre-miRNA loops + repeats)
Procedure, shortened: (§1)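 Biotin-conjugated small molecule (100 pmol) on streptavidin beads was incubated with 1 μg of heat-folded Cy5- or Cy3-end-labelled RNA library in phosphate/NaCl/KCl buffer at 25 °C for 60 min. Following three washes, RNA was eluted with hot SDS and hybridised at 55.5 °C for 20 h to a DNA barcode microarray. The binding value is a Z-score computed from the library mean and standard deviation, after subtraction of beads without compound and averaging of barcoded replicate probes with the highest and lowest excluded.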

[2] = test system: TO-3-N3 (biotin conjugate); details: RNA library: Library-2
Procedure, shortened: as §1

[3] = test system: TO-3-N3-2 (biotin conjugate); details: RNA library: Library-2
Procedure, shortened: as §1

[4] = test system: TO-N3 (biotin conjugate); details: RNA library: Library-2
Procedure, shortened: as §1

[5] = test system: TO-N3-2 (biotin conjugate); details: RNA library: Library-2
Procedure, shortened: as §1

| Sequence | pull-down binding Z-score [1] | pull-down binding Z-score [2] | pull-down binding Z-score [3] | pull-down binding Z-score [4] | pull-down binding Z-score [5] |
| --- | --- | --- | --- | --- | --- |
| GAGAGAGUGCACAGCCAGCUCAGGGAUUAAAGCUCUUUCUCUCUCUCUC [hsa-mir-7110] | -0.385 | -0.181 | 0.535 | 0.311 | 1.09 |
| UAUAGCUACAUCAGUUAUAACUAUAUCAGUUAAA [hsa-mir-5582] | -1.59 | 1.67 | 0.447 | 1.57 | 0.00457 |
| GGCUCGUCUGUGUUGCCAAUCGACUC [hsa-mir-1307] | -0.468 | 0.723 | 0.232 | 0.973 | 0.866 |
| AUCCCUUAGAUGCUAAGAUGGGGAU [hsa-mir-145] | 1.18 | -0.278 | -0.237 | -0.513 | -0.75 |
| CCUGCCACGUCAAAGGAGGCAGA [hsa-mir-3154] | 1.11 | -0.302 | -0.38 | -0.164 | 0.137 |
| CUGUUGAAAGAAAAG [hsa-mir-526a-2] | -0.371 | 0.496 | 0.511 | 1.01 | 0.598 |
| UUUUCCUGAGAAUAAGAGAAGGAAGG [hsa-mir-4455] | -0.563 | -0.477 | -0.0611 | 0.0683 | 0.75 |
| AAGCAGGGUCGGGCCUGGUU [hsa-mir-7641-2] | 0.553 | 0.415 | 0.0218 | 0.442 | 0.499 |
| UGCUGUGCUGUGCUGAGCAGGGCUGAGCUG [hsa-mir-4539] | 0.347 | 0.29 | 0.178 | 1.07 | 1.46 |
| UAGUCUAAUAGGGACUA [hsa-mir-5681b] | 2.76 | 0.02 | -0.0587 | -0.292 | -1.21 |
| UAGGUUGUUAUUUAAUCCAACU [hsa-mir-190a] | -1 | -0.24 | -0.00409 | -0.267 | -0.661 |
| CACUGAUUCAGUAAAAUACUCAGUG [hsa-mir-891a] | -0.252 | -0.707 | -0.845 | -1.09 | -1.35 |
| GCUUAUACGUGCCCUUGCU [hsa-mir-8075] | -1.63 | -0.186 | 0.345 | 0.318 | 0.504 |
| CCAUGGUGUGCUCUGAUCCCCCUGUGG [hsa-mir-6848] | -0.373 | 0.35 | 0.0413 | 0.592 | 0.49 |
| UAUGCAAAGCUCUGACAGUGUUUCACUUGCUA [hsa-mir-7848] | 0.148 | -0.489 | -0.145 | -0.256 | -0.0647 |
| GAGUCCUAUUUAUUUUUAGGAUAUUAGGAA [hsa-mir-5692c-2] | -0.397 | -0.421 | -0.148 | -0.394 | -0.62 |
| UUGGCCUUUAUUUUCAAUGGCAAG [hsa-mir-548b] | -0.0843 | 0.655 | -0.117 | 0.349 | 0.0975 |
| CUGUGGUGGCUGCUUAUGCACCACGG [hsa-mir-105-2] | 1.15 | 0.62 | -0.102 | 0.363 | -0.626 |
| CCAAAUCAGAAAAGGAUUUGG [hsa-mir-4520-1] | 4.83 | -0.497 | -0.242 | -0.698 | -0.892 |

| Sequence | pull-down binding Z-score [1] | pull-down binding Z-score [2] | pull-down binding Z-score [3] | pull-down binding Z-score [4] | pull-down binding Z-score [5] |
| --- | --- | --- | --- | --- | --- |
| CCCAUAAGGGUCGAAUGGG [hsa-mir-4713] | -0.205 | 0.401 | -0.0623 | 0.272 | 0.0587 |
| AGUCUGUCUCAUACCCAACCAGAUU [hsa-mir-205] | -1.11 | 0.258 | 0.167 | 0.14 | -0.233 |
| UGAGUGGCAUAAUCAGAGUACAAUUUGAGUCAUGCCCAUACAUCA [hsa-mir-23c] | -1.1 | -0.338 | 0.0374 | -0.271 | 0.0219 |
| AUGAGCUAAAAAUCCCCAAGCUCU [hsa-mir-4769] | -0.0764 | -0.414 | -0.358 | -0.477 | -0.0561 |
| UUAUUUGAGAUGAGUUACAUCUUGGAGG [hsa-mir-1204] | -0.564 | 0.0122 | -0.295 | -0.0949 | -0.536 |
| AAAUCCCGUUAAUAAGUAAGAGGAUUU [hsa-mir-2113] | 0.525 | 0.503 | 0.143 | 0.817 | 0.758 |
| GAGCCUGUCACAUCUCCAGACUC [hsa-mir-3925] | -1.04 | 0.0173 | -0.227 | -0.15 | 0.208 |
| CUGCGGCCCUGAUGUCUCUACUCCAG [hsa-mir-4691] | -0.134 | 0.388 | 0.103 | 0.703 | 0.919 |
| CAAGGGCUCUACUGUCCUUUCAGGAGAGCCCUUG [hsa-mir-4776-2] | 1.19 | -0.245 | -1.02 | -0.597 | -1.37 |
| GAACCCAGGGAGCCAGACUGCCUGGGUUC [hsa-mir-607] | -0.0852 | 1.05 | -0.182 | 0.843 | -0.0198 |
| UUUGUGGAUUUUGAAAAGGUGCAGG [hsa-mir-15a] | 1.81 | -0.119 | 0.66 | 0.277 | 0.28 |
| GGCUGUGGCCUAGGGCAAGCCACAAAGCC [hsa-mir-4642] | 0.507 | 0.0577 | 0.245 | 0.183 | 0.939 |
| UGAUUUGUGACUUAAGAUUAAAAUCA [hsa-mir-23b] | -0.478 | -0.415 | 0.0381 | -0.499 | -0.649 |
| UUGGUCCGUAUGUGUGGUGCCACCGG [hsa-mir-1908] | -0.147 | -0.202 | -0.0706 | 0.148 | 0.948 |
| GAUUCUUGAGGCUUGGAAGAGUAAGGAUC [hsa-mir-6866] | -0.0295 | -0.0976 | 0.281 | 0.34 | 1.07 |
| GGACCCUCUCUCUACCUCU [hsa-mir-4315-1_4315-2] | -0.489 | -0.211 | -0.12 | -0.188 | 0.0855 |
| AGAUGAGGGUGUCGGAUCAACU [hsa-mir-193a] | 1.51 | 0.135 | 0.248 | 0.579 | 0.801 |
| CUGACCCGUUGUCAGACCUGGAAAAAGGGCCGGCUGUGGGCAGGGAGG [hsa-mir-4761] | 1.11 | 4.77 | 5.16 | 4.2 | 3.86 |
